# Measured values published in IntAct's records for PubMed 22990235.
# B1: Mitochondrial intermembrane space import and assembly protein 40 (Saccharomyces cerevisiae), P36046 (parent)
# chain: MLRNLVVRNACRNRPSIQVARGLCRHQTRRLMASSPQFGRNSNQEKTAGFIMGILSMAGALYFIAPNRKPLFASRKVESDKTAEEELSSGGEQSPENEDDNNSKSDENGDDNDSKNDETEAGPQLGGDKIGASKVAEDGELVVLAEEDNKSSEDKDTDESKVSTKDDEQSNEDNATANNQKDENISSENSEENTSDKTLDNNAGSSEKKDPEHSDDEKSQQGQSDDKTTTEDNNGEEESSKKTVSDSENSAKQSESSDEEKEELRKQEEKQMGPTEEEVQHEGAYNPDTGEINWDCPCLGGMAHGPCGEEFKSAFSCFVYSEAEPKGIDCVEKFQHMQDCFRKYPEHYAEQLKETSDDEEPQDKVKVNTIESAPNVSSAKENAAKKAEQSDVKKEPLNEESKP
# partner: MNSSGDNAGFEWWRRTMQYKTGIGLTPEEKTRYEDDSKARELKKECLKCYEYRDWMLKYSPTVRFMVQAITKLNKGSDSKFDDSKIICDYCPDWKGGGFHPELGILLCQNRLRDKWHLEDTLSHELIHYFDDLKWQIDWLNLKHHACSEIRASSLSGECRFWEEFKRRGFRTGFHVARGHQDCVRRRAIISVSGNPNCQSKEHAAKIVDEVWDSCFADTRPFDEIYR
# Variants of: B1
# Details: with atp23_yeast ATP23, P53722
row,effect of a mutation on the interaction,Variant
1,decreasing interaction,MLRNLVVRNACRNRPSIQVARGLCRHQTRRLMASSPQFGRNSNQEKTAGFIMGILSMAGALYFIAPNRKPLFASRKVESDKTAEEELSSGGEQSPENEDDNNSKSDENGDDNDSKNDETEAGPQLGGDKIGASKVAEDGELVVLAEEDNKSSEDKDTDESKVSTKDDEQSNEDNATANNQKDENISSENSEENTSDKTLDNNAGSSEKKDPEHSDDEKSQQGQSDDKTTTEDNNGEEESSKKTVSDSENSAKQSESSDEEKEELRKQEEKQMGPTEEEVQHEGAYNPDTGEINWDCPCLGGMAHGPCGEEFKSAESCFVYSEAEPKGIDCVEKFQHMQDCFRKYPEHYAEQLKETSDDEEPQDKVKVNTIESAPNVSSAKENAAKKAEQSDVKKEPLNEESKP [F315E]
2,decreasing interaction,MLRNLVVRNACRNRPSIQVARGLCRHQTRRLMASSPQFGRNSNQEKTAGFIMGILSMAGALYFIAPNRKPLFASRKVESDKTAEEELSSGGEQSPENEDDNNSKSDENGDDNDSKNDETEAGPQLGGDKIGASKVAEDGELVVLAEEDNKSSEDKDTDESKVSTKDDEQSNEDNATANNQKDENISSENSEENTSDKTLDNNAGSSEKKDPEHSDDEKSQQGQSDDKTTTEDNNGEEESSKKTVSDSENSAKQSESSDEEKEELRKQEEKQMGPTEEEVQHEGAYNPDTGEINWDCPCLGGMAHGPCGEEFKSAFSCEVYSEAEPKGIDCVEKFQHMQDCFRKYPEHYAEQLKETSDDEEPQDKVKVNTIESAPNVSSAKENAAKKAEQSDVKKEPLNEESKP [F318E]
